Results reported in PMC6954389 (Nucleic Acids Research, 2019).

Molecular target: T1, His6-σ^A_(C170), C-terminal residues 359–528 of σ^A, wildtype (M. tuberculosis, UniProt P9WGI1 359-528)
T1 sequence: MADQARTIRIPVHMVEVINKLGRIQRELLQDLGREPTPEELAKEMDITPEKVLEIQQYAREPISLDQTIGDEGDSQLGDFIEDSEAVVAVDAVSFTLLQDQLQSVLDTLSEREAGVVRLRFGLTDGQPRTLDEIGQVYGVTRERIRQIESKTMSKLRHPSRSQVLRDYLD
Assay: pull-down

B1: tagless wildtype WhiB1, purified (from His6-SUMO-WhiB1) (natural protein)
chain: MDWRHKAVCRDEDPELFFPVGNSGPALAQIADAKLVCNRCPVTTECLSWALNTGQDSGVWGGMSEDERRALKRRNARTKARTGV
binding result: binds
